Where “and” joins values, the source holds several entries; their conditions need not be identical. Equal entries are not always repeated.
Biological target: Chinese hamster BiP, wild type, with an N-terminal His6-tag (UK173) (Chinese hamster) (UniProt G3I8R9)
Assay: SEC; 40 µM BiP with 1 mM ADP, 20 min at 24°C; SEC-3 HPLC column, 50 mM HEPES-KOH pH 7.4, 150 mM KCl, 10 mM MgCl2, 26°C; A230

stoichiometry N: 2 and 3
Substance: Chinese hamster BiP, wild type, with an N-terminal His6-tag (UK173) (from UniProt G3I8R9 19-654) (natural protein)

From PMC7758071
